Reference: patent US11834553B2, “Alkoxylation methods” (priority 2009, dated 2023)

What was measured:
[1] = Stress stability studies of 4-arm-PEG-Gly-Irino-20K (Example 3); type: physicochemical; details: summary of stress stability studies
Description: The product formed in Example 1, 4-arm-PEG-Gly-Irino-20K, compound 5, (approximately 1-2 g) was weighed into PEG PE ‘whirl top’ bags and placed into another ‘whirl top’ bag in order to simulate the API packaging conditions. In one study (results shown in FIG. 1), samples were placed in an environmental chamber at 25° C./60% RH for 4 weeks. In another study, samples were placed in an environmental chamber at 40° C./75% RH for up to several months (results shown in FIG. 2 and FIG. 3). Samples were taken and analyzed on a periodic basis over the course of the studies.

[2] = pH 10, 20° C., within 24 hours
Description: (§1) Experiments were performed to determine the fate of the irinotecan-containing PEG species in 4-arm-PEG-Gly-Irino-20K under transesterification (K2CO3 in CH3OH, 20° C.) and aqueous hydrolysis (pH 10, 20° C.) conditions.

[3] = K2CO3 in CH3OH, 20° C., after 45 minutes
Description: as §1

For “pentaerythritolyl-4-arm-(PEG-1-methylene-2-oxo-vinylamino acetate linked-irinotecan) [4-arm-PEG-Gly-Irino-20K]”, the “overall stability compared with free base and hydrochloride salt” value [1] was “greater stability than either the free base or hydrochloride salt”, the “aqueous hydrolysis reaction, completion” value [2] was > 99% and the “transesterification reaction, completion” value [3] was > 99%.
